Test results taken from patent US20200157146A1.

Target: HLA-A2 (human)
Experiment: T2 cells without peptide stained with MA2.1 mAb, flow cytometry (baseline of the stabilization assay)

mean channel fluorescence: 90
Substance: MA2.1 mAb (antibody)
